Laboratory results taken from the nanobody polyreactivity screen of Harvey et al. (2022).

Assay: yeast display, Sf9 membrane polyspecificity reagent, FACS + sequencing; frameworks hold sequencing errors
How it was run: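 Nanobodies came from a synthetic yeast display library in Saccharomyces cerevisiae BJ5465, induced with galactose for 36–48 hours and stained for 1 hour at 4 °C with 10% biotinylated, detergent-solubilized Sf9 membrane reagent. Cells were enriched on streptavidin microbeads and then FACS-sorted, with low and high (top ~1%) gates set on anti-HA fluorescence for expression and streptavidin fluorescence for reagent binding. Each polyreactivity label reflects the gate a clone came from. Genes were amplified by colony PCR, sequenced by MiSeq 2 × 250 and filtered by CDR length.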

| Sequence | polyreactivity (PSR sort gate) |
| --- | --- |
| QVQLVESGGGLVQAGGSLRLSCAASGRTVEQNAMGLYRQAPGKERELVASITSVGSTDYADSVKGRFTISRDNAKNTVYLQMNSLKPEDTAVYYCAKTLGSQNYDFDYWGKGTQVTVSS | low polyreactivity |
| QVQLVESGGGLVQAGGSLRLSCAASGRTVGSYVMGWYRHAPVKERELVATISRRGGTTYYADSVKARFTISRDNAKNTVYLQMNSLKPEDTAVYYCNRVIPLASYGYGYWGQGTQVTVSS | high polyreactivity |
| QVQLVESGGGLVQAGGSLRLSCAASGRTVPYAMGWYRQAPGKERELVATITYRVSTYYADSVKGRFTISRDNAKNTVYLQMNSLKPEDTEVYYCNTVTYPYVPALYDYWGQGTQVTVSS | high polyreactivity |
| QVQLVESGGGLVQAGGSLRLSCAASGRTYAYYAMGWYRQAPGKERELVAAITRGTDTHYADSVKGRFTISRDNAKNTVYLQMNSLKPEDTAVYYCAADLSQDFDYWGQGTQVTVSS | low polyreactivity |
| QVQLVESGGGLVQAGGSLRLSCAASGRTYGYNAMGWYRQAPGKERELVAAISRSGDSTYYADSVKGRFTISRDNAKNTVYLQMNSLKPEDTAVYYCATRYVTTGYDYWGQGTQVTVSS | low polyreactivity |
| QVQLVESGGGLVQAGGSLRLSCAASGRTYKYYALGWYRQARGKERELVAAITSGASTNYADSVKGRFTISRDNAKNTVYLQMNSLKPEDTAVYYCAARKAYFFDRYGYWGLGTQVTVSS | high polyreactivity |
| QVQLVESGGGLVQAGGSLRLSCAASGRTYPRYGMGWYRQAPGKERELVDTIRTGGRTNYADSVKGRFTISRDNAKNTVYLQMNSLKPEDTAVYYCATDSSKHPYSPTLLKFDYWGQGTQVTVSS | low polyreactivity |
| QVQLVESGGGLVQAGGSLRLSCAASGRTYPYYAMGWYRQAPGKEREVVAAITYRGGSTSYADSVKGRFTISRDNAKNTVDLQMNSLKPEDTAVYYCAARTWNRRSPYDYWGQGTQVTVSS | high polyreactivity |
| QVQLVESGGGLVQAGGSLRLSCAASGRTYTFNTMGLSRQAPGKEREWVAAIDGDGTTNYADSVKGRFTISRDNAKNTVYLQMNSLKPEDTAVYYCAADFLYSFWYEPTFDYWGQGTQVTVSS | low polyreactivity |
| QVQLVESGGGLVQAGGSLRLSCAASGRTYVNTMGWYRQAPGKERELVAAISWSGGRTRYADSVKGRFTISRDNAKNTVYLQMNSLKPEDTAVYYCAKRTYSRKFRGAYNYWGQGTQVTVSS | high polyreactivity |
| QVQLVESGGGLVQAGGSLRLSCAASGRTYVVYAMGWYRQAPGKERELVARFRWRDVSTYYADSVKGRFTISRDNAKNTVYLQMNSLKPEDSAVYYCAARSYTGGGRLYYWGQGTQVTVSS | high polyreactivity |
| QVQLVESGGGLVQAGGSLRLSCAASGRTYYYNAMGWYREAPGKERELVARISQRTGSTYYADSVKGRFTISRDNAKNTVYLQMNSLKPEDTAVYYCAASSQTRQWTNDYWGQGTQVTVSS | high polyreactivity |
| QVQLVESGGGLVQAGGSLRLSCAASGSICAYYAMGGYRQAPGTERELVAAISQSGGSTYYADSVKGRVTISRDNAKNTVYLQMNSLKPEDTADYYCAARFRYGYSGYRYDYWGQGTQVNVSS | high polyreactivity |
| QVQLVESGGGLVQAGGSLRLSCAASGSICVDNAMGWYRQAPGKERELVAVITLRSGSTNYADSVKGRFTISRDNAKNTVYLQMNSLKPEDTAVYYCAADDTYHDYQRDTDDDYWGQGTQVTVSS | low polyreactivity |
| QVQLVESGGGLVQAGGSLRLSCAASGSICYSYAMGWYRQAPWKEREFVATISDSSGSTYYADSVKGRFTISRDYATNTVYLQMNSLKPEDSAVYYCATTDSYGYYGYGYWGQGTQVTVSS | low polyreactivity |
| QVQLVESGGGLVQAGGSLRLSCAASGSIERNAMGWYRQAPGKERELVAAISRSGTRTYYADSVKGRFTISRDNAKNTVYLQMNSLKPEDTAVYYCAKASAQWVQFDYWGQGTQVTVSS | high polyreactivity |
| QVQLVESGGGLVQAGGSLRLSCAASGSIFAAYAMGWYRQAPGKERELVAVINSRGGITSYADSVKGRFTISRDNAKNTVYLQMNSLKPEDTAVYYCAARPWYSWRYDYWGQGTQVTVSS | high polyreactivity |
